Molecular target: Full length LEF-1 (1-399) (human) (UniProt Q9UJU2)
UniProt Q9UJU2, sequence (Q9UJU2 whole entry): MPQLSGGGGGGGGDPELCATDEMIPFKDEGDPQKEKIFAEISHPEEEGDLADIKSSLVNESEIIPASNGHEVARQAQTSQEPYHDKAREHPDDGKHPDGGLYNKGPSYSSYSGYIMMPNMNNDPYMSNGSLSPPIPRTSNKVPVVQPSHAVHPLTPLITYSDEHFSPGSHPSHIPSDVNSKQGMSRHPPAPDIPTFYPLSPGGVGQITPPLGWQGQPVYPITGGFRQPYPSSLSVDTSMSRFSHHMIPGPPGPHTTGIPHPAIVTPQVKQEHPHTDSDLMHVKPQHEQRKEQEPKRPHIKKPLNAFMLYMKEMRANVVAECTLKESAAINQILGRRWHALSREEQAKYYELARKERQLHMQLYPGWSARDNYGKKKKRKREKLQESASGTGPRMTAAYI

How did the repression of LEF-1•β-catenin activated TOPFlash luciferase reporter in COS-1 cells, 250 and 500 ng Groucho expression vector turn out when “GST-Groucho (Drosophila), recovered as a 97 kDa protease-stable fusion protein (from UniProt P16371 1-730) (natural protein)” was run?
The repression of LEF-1•β-catenin activated TOPFlash luciferase reporter in COS-1 cells, 250 and 500 ng Groucho expression vector was 3 fold.

Which repression of LEF-1•β-catenin activated TOPFlash luciferase reporter in COS-1 cells does the source give for “human TLE-2 (from UniProt Q04725 1-743) (natural protein)” here?
Its repression of LEF-1•β-catenin activated TOPFlash luciferase reporter in COS-1 cells is 3 fold.

B1: human Amino-enhancer-of-split (AES) (natural protein)
chain: MMFPQSRHSGSSHLPQQLKFTTSDSCDRIKDEFQLLQAQYHSLKLECDKLASEKSEMQRHYVMYYEMSYGLNIEMHKQAEIVKRLNGICAQVLPYLSQEHQQQVLGAIERAKQVTAPELNSIIRQQLQAHQLSQLQALALPLTPLPVGLQPPSLPAVSAGTGLLSLSALGSQAHLSKEDKNGHDGDTHQEDDGEKSD
B1 was tested. Which repression of LEF-1•β-catenin activated TOPFlash luciferase reporter in COS-1 cells, 250 and 500 ng AES expression vector did it give?
The repression of LEF-1•β-catenin activated TOPFlash luciferase reporter in COS-1 cells, 250 and 500 ng AES expression vector was 3 fold.

— publication PMC2701438
